Patent US20230235004A1

Molecular target: recombinant mouse MAdCAM-1 (mouse) (UniProt Q61826)
Assay: Octet

recombinant mouse MAdCAM-1 (mouse), sequence (Q61826 22-364 limits assumed): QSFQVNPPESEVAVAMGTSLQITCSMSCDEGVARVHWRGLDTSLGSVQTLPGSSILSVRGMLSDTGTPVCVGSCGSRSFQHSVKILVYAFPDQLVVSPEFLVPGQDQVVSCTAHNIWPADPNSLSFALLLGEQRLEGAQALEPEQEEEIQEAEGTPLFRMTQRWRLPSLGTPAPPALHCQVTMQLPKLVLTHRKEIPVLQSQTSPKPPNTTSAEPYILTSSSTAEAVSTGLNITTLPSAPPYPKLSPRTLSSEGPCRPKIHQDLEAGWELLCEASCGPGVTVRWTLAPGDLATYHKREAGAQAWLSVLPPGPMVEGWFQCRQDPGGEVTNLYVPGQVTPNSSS

B1: MAdCAM antibody Table 1 clone 1 (scFv)
scFv: EVQLLESGGGLVQPGGSLRLSCAASGFTFSSYGMHWVRQAPGKGLEWVAVISDDGSDKYYADSVKGRFTISRDNSKNTLYLQMNSLRAEDTAVYYCTTSKYYYYYGMDVWGQGTTVTVSSGGGGSGGGGSGGGGSGGGGSDIQMTQSPSSLSASVGDRVTITCQASQDISKSLNWYQQKPGKAPKLLIYAASSLQSGVPSRFSGSGSGTDFTLTISSLQPEDFATYYCQQGYSTPLTFGGGTKVEIK
In the case of B1, the MAdCAM Octet Binding is reported as 0.16.
